This is an account of results in the nanobody polyreactivity screen of Harvey et al. (2022).

The data set in a line: yeast display, Sf9 membrane polyspecificity reagent, FACS + sequencing; frameworks hold sequencing errors. The method in brief:
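Nanobodies came from a synthetic yeast display library in Saccharomyces cerevisiae BJ5465, induced with galactose for 36–48 hours and stained for 1 hour at 4 °C with 10% biotinylated, detergent-solubilized Sf9 membrane reagent. Cells were enriched on streptavidin microbeads and then FACS-sorted, with low and high (top ~1%) gates set on anti-HA fluorescence for expression and streptavidin fluorescence for reagent binding. Each polyreactivity label reflects the gate a clone came from. Genes were amplified by colony PCR, sequenced by MiSeq 2 × 250 and filtered by CDR length.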
“QVRLVESGGGLVQAGGSLRLSCAASGSIFQYYVMGWYRQAPGKERELVAAISRNGGRTYYADSVKGRFTISRDNAKNTVYLQMNSLKPEDTAVYYCAADSIPHRDNYWGQGTQVTVSS”: the “polyreactivity (PSR sort gate)” value is listed as “high polyreactivity”.
Under “QVQLVESGGGLVQAGGSLRLSCDASGLIFWRNAMGWYRQAPGKERELVAGITSGGSTYYADSVKGRFTISRDNAKNTVYLQMNCLKPEDTAVYYCAKSTWQSYYYPRGSVYWGQGTQVTVSS” stands “high polyreactivity”; under “QVQLVESGGGLVQAGGSLRLICAASGRTFGVYSMGWYRQAPGKERELVAAISATGGSTYYADSVKGRFTISRDNAKNTVYLQMNSLKPEDTAVYYCARGGTTLYWGQGTQVTVSS”, “high polyreactivity”; under “QVQLEESGGGLVHAGGSLRLSCAASGFTFKYNAMGWYRQAPGKEREFVASISSGSTNYADSVKGRFTISRDNAKNTVYLQMNSLKPEDTAVYYCAASVSRGKRFRYGYVFKMDYWGQGTQVTVSS”, “low polyreactivity”.
The same measure for “QVQLVESGGGLVQAGGSLRLSCAASGIFVGYTMGWYRQAPGKERELVAAIRWTDGSTYYADSVKGRFTISRDNAKNTVYLQMISLKPEDTAVYYCAADSHDPARYYYGDEFEDEYWGQGTQVTVSS”: “low polyreactivity”.
Regarding “QVQLVESWGGLVQAGGTLSLSCADSGLIFYFYDRGWYRQAPGKESEFVATISSTGGSTYYADSVKGRFTISRDNAKNTVYLQMNSVKPEDTAVYVCADRGWFPGFRYDYWGQGTQVTVSS”, the “polyreactivity (PSR sort gate)” value was “low polyreactivity”.
On to “QDQLVESGGGLVQAGGSLRLSCAASGITFYRYAMGWYRQAPGKERDLVAAITTSDTSTYYADSVKGRFTISRDNAKNTVYLQMNSLKPEDTAVYYCATDVVNIAPAEYDYWGQGTQVTVSS”, for which the “polyreactivity (PSR sort gate)” value is “low polyreactivity”.
Under “QVQLVESGGGLVQAGGSLRLSCAASGSIFRGNALGWYRQAPGKERELVATITNGGSTNYADSVKGRFTISRDNAKNTVYLQMNSLKPEDTAVYSCNADHSYHIASTRHVDYWGQGNQVTVSS” stands “low polyreactivity”; under “QDQLVESRGALVQAGGSLRLSCAASGITFVRNAMGWYRQAPGKERELVAAISSGGSTYYADSVKGRFTISRDNAKNTVYLQMNSLTREDTAVYYCAVLSSWRFSGYDYWGQGSQVTVSS”, “low polyreactivity”; under “QVQLVESGGGLVQAGGSLRLSCAASGRIFVKYAMGLYRQAPGKERELVAAIRSGGSTYYADSVKRRFTISRDNAKYTVYLQMNSLKPEDTAVYYCAADRNKHHYYNEPYDYWGQGTQVTVSS”, “low polyreactivity”.
“QVQLLESGGGLVQAGGSLRLSCMASGSILGDRMSWYRQAPGKEHELVATIYDGGITYYADSMKGRFTISRDNAKNTVYLQMNSLRPEDTAVYYCGASFEGYGYHVYCGQGTQVTVSS”: the “polyreactivity (PSR sort gate)” value is “low polyreactivity”.
The same measure for “QLQLVESGGGLVQAGGRLRLSCASSGSTFHSYVMGWYRPAPGKERELVAAITSRGGSTNYADSVKGRFTISRENAKNTVYLHMNSLKPEDTAVYYCAADGYWGWSYFRYDYLGQGTQVTVSS”: “low polyreactivity”; for “QVQLVESGGGLVQAGGSLRLSCAASGITFTVYAMGWYRQAPGKERELVAAITSTGSTNYADSVKGRSTISRDNAKNTVYLQMNSLKPEDTAVYYCAADRQITVYAYDYWGQGTQVTVSS”: “low polyreactivity”.
Under “QVQLVESGGGLVQAGGSLRLSCAASGSIFPRYAMGWYRQAPGKEREFVAAITGSGSSTYYADSVKGRFTISRDNAKNTVYLQMNSLKPEDTAVYYCAARKARPPFPHPFDYYWGQGTQVTVSS” stands “low polyreactivity”.
The same measure for “QVQLVESGGGLVQAGGSLRLSCAASGRTSLRNAMGWYRQAPGKEWELVATISQSGGRTHYADSVKGRFTISRENAKNTVYLQMNSLKPEDTAVYYCGAVARFSQYLYNYWGQGTQVTVSS”: “low polyreactivity”; for “QVQRVESGGGLVQAGGSLRLSCAASGSIFSIYAMGWYRQAPGKETELVAAIDSGTSTTYADSVKGRFTISRDNAKNTVYLEMNSLKPEDTAVYYCAAALYSDVAAVATYGYYCGQGTQVTVSS”: “low polyreactivity”; for “QVQLVESGGGLVQAGGSLRLSCAASGFIFATNPMGWYRQAPGKERELVAASSTYYADSVKGRFTISRDNAKNTVYLQMNSLKPEDTAVYYCNADRDSYIGFVDWAGEYWGQGTQVTVSS”: “low polyreactivity”.
Consider “QVQLVESGGGLVQAGGSLRLSCAASGSIFSFYTMGWYRQAPGKERELVASSTTYADSVKGRFTISRDNAKNTVYLQMNSLKPEDTAVYYCAVDYNSLRYGPLGYWGQGTQVTVSS”, for which the “polyreactivity (PSR sort gate)” value is “low polyreactivity”.
Consider “QVQLVESGGGLVQAGGSLRLICAASGTFRINAMGWYRQAPGKEREFVATITSGGSTNYADSVKGRFTISRDNAKNTVYLQMNSLKPEDTAVYYCSRTRKIAGYYFWGQGTQVTVSS”, for which the “polyreactivity (PSR sort gate)” value is reported as “high polyreactivity”.
As to “QVQLVESGGGLVQAGGSLRLSCAASGNTFYRNAMGWYRQAPGKDRELVAAIDYGGSTTYYADSVKGRFTISRDNSKNTVYLQMNSLKPEDTAVYYCAAREYRIGHVQPMDYWGQGTQVTVSS”, the “polyreactivity (PSR sort gate)” value is given as “high polyreactivity”.
For “QVQLVESGGGLVQAGGSLRLSCAASGFIFSSYAMGWYRPAPGKERELVAAISKSGDRTSYADSVKGRFTISRDNAKNTVYLQMNSLKPEDTAVYYCNAKYWGYSHHVIWYDYWGQGTQVTVSS”, the “polyreactivity (PSR sort gate)” value is recorded as “high polyreactivity”.
Under “QVQLVESGGGLVQAGGSLRLSCAAYGIIFYLYVMGWYRQAPGKERELVAVISYSGDDTYYADSVKGRFTISRDNAKNTVYLQMNSLKPEDTAVYYCAADYYYVYSSFGHYYWGQGTQVTVSS” stands “low polyreactivity”.
As to “QVQLVESGGGLVQAGGSLRLSCAASGFIFGSNAMGWYRQAPGKERELVAAISRSGGSTYYADSVKGRFTISRDNAKNTVYLQMNSLKPEHTAVYYCASYLYKSRYLPEYDYWGQGTQVTVSS”, the “polyreactivity (PSR sort gate)” value is listed as “high polyreactivity”.
As to “QVQLLESGGGLVQAGGSLRLSCAASGSTFLANAMGWYRQAPGKERDLVAAISSSGGSTYYADSVKWRFTISRDNAKNTVYVQMNSLKPEDTAVYYCAAATASRYRLWGGYYYWGQGTQVTVSS”, the “polyreactivity (PSR sort gate)” value is recorded as “low polyreactivity”.
Under “QVQLVESGGGLVQAGGSLRLSCAASGRIFYSNAMGWYRQAPGKERELVAAISRSGVRTYYADSVKGRFTISRDNAKNTVYLQMNSLKPEDTAVYYCAADLYWWSYYYWGQGTQVTVSS” stands “low polyreactivity”; under “QVQLVESGGGLVQAGGSLRLTSADSGRTLYNYAMRWYRQAPGKERELVAGISSAGSTNYADSVKGRFTISRDNAKNTVYLQMNSLKPEDTAVYYCNAVLRRRWVTFYYWGQGPQVTVSS”, “high polyreactivity”; under “QVQLVESGGGLVQAGGSLRLSCAASGSTFTYNTMGWYRQAPGKERELVAGITKSGGSTYYADSVKGRFTISRDTAKNTVYLQMNSLKPEDTAVYYCATSTSRRYGSRHNYWGQGTQVTVSS”, “high polyreactivity”.
Take “QVQLVESGGGLVQAGGSLRLSCAASGRIFYRYAMGWYRQAPGKERELVAGISNSGGSTYYADSVKGRFTISRDNAKNTVYLQMNSLKPADTAVYYCATGPSYRYDIGGGRIRYYYWGQGTQVSVSS”: the “polyreactivity (PSR sort gate)” value is “high polyreactivity”.
The same measure for “QVQLVESGGGLVQAGGSLRLSCAASGRTFHINAMGWYRQAPGKERELVAGINSGGSTNYADSVKGRFTISRDNAKNTVYLQMNSLKPEDTAVYYCNAVVKLKYLYYYVEHYYWGQGTQVTVSS”: “low polyreactivity”; for “QVQLVESGGGLVQAGGSLRLSCAASGIISAHYAMGWYRQAPGKERELVAAISSSGGSTYYADSVKGRFTISRDNAKNTVYLQMNSLKPEDTAVYYCNAEFYWGYDYWGQGTQVTVSS”: “low polyreactivity”; for “QVQLVESGGVLVQAGGSIRLTCAASGFTFSHYAMGWYRQAPGKERELVAAIRYSRASTYYADSVKGRFTISRYNAKNTVYLQMISVKPEDTSVYYCARPWWWAHHYDYDYWGQGSQVTVSS”: “low polyreactivity”.
Under “QVQLVESGGGLVQAGGSLRLSCAASGIIFVWYTMGWYRQAPGKERELVAAIDSIGDGTYYADSVKGRFTISRDNAKNTVYLQMNSLKPEDTAVYYCAVDDYYEMDYWGQGTQVTVSS” stands “low polyreactivity”.
Under “QVQLVESGGGLVQAGGSLRLTCADSGSIFYYYGMGWYRQAPGKERELVASITQSGVSTYYADSVKGRFTISRDNANNSVYLQMNSLKPEYTAVYYCAAGTVSGVDYWGQGTQVTVSS” stands “high polyreactivity”; under “QVQLVESGGGLVQAGGSLRLSCAASGRTFFPYAMGWYRQAPGKERELVARISRTTGRTYYADSVKGRFTISRDNAKNTVFLQMNSLKPEDTAVYYCNAEGFRASGGYVRFEYWGQGTQVTVSS”, “high polyreactivity”.
In the case of “QVQHVESGGGLVQAGGSLRLSCAASGSTFTAYVMGWYRQAPGKERELVAAISRSGGRTYYADSVKGRFTISRDNAKNTVYLQMNSLKPEDTAVYYCAARSGPLAYDYWGQGTQVTVSS”, the “polyreactivity (PSR sort gate)” value was “high polyreactivity”.
Under “QVQLVESGGGLVEAGGSLRLICAASGSIFYFYGMGWYRQAPGKEREVVAAITYSGGSTYYADSVKGRYTISRDNAKNTVDLQMNSLIPEDTAVYYCNADSVLELYWKMDYWGQGTQVTVSS” stands “low polyreactivity”.
The same measure for “QVQLVESGGGLVQAGGSLRLSCAASGSTIPSYAMGWYRQAPGKERELVASITYSDGTTRYAYSVKGRFTISRDNAKNTVYLQMNSLKPEDTAVYYCNAVYYREGMDYWGQGTQVTVSS”: “low polyreactivity”; for “QVQHVESGGALVQAGGSHRLSCAASGLTIWRYAKGWYRLATGKERELVAAINYNGVRTYYADSVKGRFTISRDNAKNTVYLQMNSLKQEDTAVYYCAAKPGYYGYWGQGTQVTVSS”: “high polyreactivity”; for “QVQLVESGGGLVQAGGSLRLSCAASGSTFYPYAMGWYRQAPGKERELVAAISYSGGSTYYADSVKGRFTISRDNAKNTVYLQMNSLKPEDTAVYYCAAYYRVYGASYDYWGQGTQVTVSS”: “high polyreactivity”.
Turning to “QVQLVESGGGLVQAGGSLRLSCAASGFIFYRYAMGWYRQAPGKERELVAAITGGGSTYYADSVKGRFTISRDNAKNTVYLQMNSLKPEDTAVYYCNAVTYGWTAYDKGKRYDYWGQGTQVTVSS”, the “polyreactivity (PSR sort gate)” value is given as “high polyreactivity”.
As to “QDQHVESGGGLVQAGGSLRLSCAASGRTFVPYAMGWYRQAPGKERELVATISRSGGRTNYADSVKGRFTISRDNAKNTVYIQMNSLKPEDTAVYYCAATGFLTWRHMYYWGQGTQVTVSS”, the “polyreactivity (PSR sort gate)” value is “high polyreactivity”.
